Measured values as given in the DeepSol protein solubility set.

Experiment: soluble on expression in E. coli; label from the status in PepcDB or PDB records

Row | Sequence | soluble on expression in E. coli
1 | MQRLSPGEFKTLISKERKSHFITPFALVYKTFCDLGYDQKNSDYFLNNPSEYIIAMRKNCWKEFEPFEKEFTTRMLSYLIDEERIKDMSPYDAIRDFTMEYPTHIYDLALSNTQSRRSRAGKEFESILELLMMGAGIPVDVQGAIGKSFFQKNQIGKLVDLVMPGVVQYTSNKRNTMLISAKTTLRERWQEVPEEVNRTGIREMYLATLDDSFSEETINILYEANVVVVTTVENKNFKYKNNNRVLTFEDMLQSAMELSRKWNNVSYTDSEKEEIQQSILKQIEKYSDFPYVVNYYRNRLSALFD | soluble
2 | MQSAAVSGRLICNGRPAVDVKLKLYENEIFFDRLMEEGRTDSNGQFRVLGSKREITTIDPKLNVYHKCNYNGLCDQKFTIHIPKDYVTSGSQPSRTFDIGTLNLANNFPGQSTDCLN | not soluble
3 | MQSRWNDTEAETFAAEARARGEPAELGLRVYSSRLIGQDPDLVLHGGGNTSVKIPSPEGMLIHVKGSGWDLGDIEAPGLPAMHLAPLLETRDVPQMSDEEMVALLRAHLLDPAAPTPSVEALLHAYMPQAFVDHTHATAILALADQADMEPVVAELFGGRVGWVPYVMPGYALSHACREAFARDPSVEGLWLEQHGLFTFAETARESYERMIGFVTMAEEHLAARGVPLPGPEANDGTAPERLAADLRAALAARGALGADPSLDFRSSPSIRSYLGRADLPELARRGTATPDHVIRLKPFPMLLEPTAGPAEIEAALDAFEAEYRAYFDRNAPNASEAKIMLDPLPRVVLVPGLGGWGVGANGKAARIAGDLLEQTSRVVNAAETYRRFTPISEGDLFDMEYWSLEQAKLRKA | not soluble
4 | MQSSLSFSCGVKSTMAKSPVEVNLIPIEATPETFAEYGQVIEASRDGAGYGPNDAQLDLSKGIPRLYILRLKETPLGFFKITHHAKVTQCLGSIGGDIWYMGVAKPSLIEDDDDGRRVDTVKAKSGHLYIPPEVEEIRVFRFSGPKFVKLHRGTWHAGPLFSGSSIMDFYNLELSNTNVVDHTSHDFTKNNGVSFRFDT | not soluble
5 | MQTEVKETPRYAIVASVQLPEVSDAEFEASLTELSELAKTLGFQVVQTFVQKRSSFDRTAYMGVGKLDEISMYVKRGIRADELEDEPQELDASSVAIDALLVDHEISPSQARNLELAVGCEVMDRTMVILEIFHRNARSRAARAQVEIARLGYMAPRLREAAKLAGPQGRQRSGMGGRGAGESHTELDRRKVRDRIAELQREIVAMELERKTQRARRLERQGLGLGGVSLVGYTNAGKSTLMRALTGSEVLVANKLFATLDTTVRVLHPESVPRVLVSDTVGFIKNLPHGLVASFKSTLEEALDASLLLHAIDASDPGFQRQLEVTDEVLREIGADDVPRIRVFNKIDHVGDEAEQAAWTAELRQRYPGCVVMSALRPEDVASLRAAIVAFFQQDLVEDELLLPWSAQQLRGEIYSHCQVLEERAEEEGCWFRVRGEPEKLRSLREQLNPGSQGREKEYWEALEHHHHHH | not soluble
6 | MQTRATPAPAAPLERFNAAPAEEAAGTLLACLHSRAWADRLVAHRPYPDLPALLAAADEAAYDLSSDDLSEALAAETLPALPEDTYAAAHTALSAAHAAYESRFGHVFVISLDGLSPEETLNHVLAAIRSRLANDPDEERLVASEELRRLAGGRVRRLLGARGTARPATDDPHPANHTKPPPPLEHHHHHH | soluble
7 | MQTSPLLTQLMEALRCLPGVGPKSAQRMAFTLLQRDRSGGMRLAQALTRAMSEIGHCADCRTFTEQEVCNICSNPRRQENGQICVVESPADIYAIEQTGQFSGRYFVLMGHLSPLDGIGPDDIGLDRLEQRLAEEKITEVILATNPTVEGEATANYIAELCAQYDVEASRIAHGVPVGGELEMVDGTTLSHSLAGRHKIRF | soluble
8 | MQVDDWIVGLEVEIFTFDGKEYRGIVYTYDADANCVVLARKSQDSLKSDLRILKASLVKNINVLGRSNVDQLPQQLSPLNLEALKMREEQALQKARKDLARTGVGVSQQAQEIFDALCKTLPCQWEEDSIVIFENIKLKKPYRVEDLEGSEIEAVNRVKVVLENELQKLQRRNT | soluble
9 | MQVFIMRHGDAALDAASDSVRPLTTNGCDESRLMANWLKGQKVEIERVLVSPFLRAEQTLEEVGDCLNLPSSAEVLPELTPCGDVGLVSAYLQALTNEGVASVLVISHLPLVGYLVAELCPGETPPMFTTSAIASVTLDESGKGEFNWQMSPCNLKMAKAI | soluble
10 | MQVLTTSRKPGRKTRRFAKVLARFFNWKYVNRGKLSLEDLAGIAERFWIISEVKGNPAILNLYERGEKTLEVSFTLSNVNKIKMDDSPAVFKGKAPIDPLVFGAIPQTKAGLKLTRKVEFRKKVVVKGDEWLFFYDDEMLFKLRILKISRSSR | not soluble
11 | MQVNFSSFLDNFFAMQVCREMTRNDVKFAISPQFLRISRHPHIP | not soluble
12 | MQVRRAVLGAAHVERSLANLTPFNEEFQEMITRHAWGDIWTRPGLPRHTRSLVTIAMLIGMNRNEELKLHLRAAKNNGVSRDEIKEVIMQSAIYCGIPAANATFHLAESVWDELGVESQQASR | not soluble
13 | MQWSKEEEAAARKKVKENSAVRVLLEEQVKYEREASKYWDTFYKIHKNKFFKDRNWLLREFPEILPVDQKPEEKARESSWDHVKTSATNRFSRMHCPTVPDEKNHYEKSSGSSEGQSKTESDFSNLDSEKHKKGPMETGLFPGSNATFRILEVGCGAGNSVFPILNTLENSPESFLYCCDFASGAVELVKSHSSYRATQCFAFVHDVCDDGLPYPFPDGILDVILLVFVLSSIHPDRTLFI | soluble
14 | MQYKDENGVNEPSRRRLLKVIGALALAGSCPVAHAQKTQSAPGTLSPDARNEKQPFYGEHQAGILTPQQAAMMLVAFDVLASDKADLERLFRLLTQRFAFLTQGGAAPETPNPRLPPLDSGILGGYIAPDNLTITLSVGHSLFDERFGLAPQMPKKLQKMTRFPNDSLDAALCHGDVLLQICANTQDTVIHALRDIIKHTPDLLSVRWKREGFISDHAARSKGKETPINLLGFKDGTANPDSQNDKLMQKVVWVTADQQEPAWTIGGSYQAVRLIQFRVEFWDRTPLKEQQTIFGRDKQTGAPLGMQHEHDVPDYASDPEGKVIALDSHIRLANPRTAESESSLMLRRGYSYSLGVTNSGQLDMGLLFVCYQHDLEKGFLTVQKRLNGEALEEYVKPIGGGYFFALPGVKDANDYFGSALLRV | soluble
15 | MQYKLILNGKTLKGETTTEAVDAATAEKVFKQYANDNGVDGEWTYDDATKTFTVTEGSHHHHHHMHRDSCPLDCKVYVGNLGNNGNKTELERAFGYYGPLRSVWVARNPPGFAFVEFEDPRDAADAVRELDGRTLCGCRVRVELSNGEKR | soluble
16 | MRAIVFVKATKSSEEGVMPTTELMEAMGKFNEELVNAGIMQSGDGLHPSSKGKRVVFDGDSRTVVNGPFPHTNELVAGFWIWKVKDMDEAVEWVKRCPNPMLEKSEIEIRPMFEMEDFGDAVTPEIAAHVEELRARVGKQ | not soluble
17 | MRAIYATDLSAASEAAIQNETCLECLGRIGVDTIHLVTVIPSNVHAGMPGMNFSKRREQGLTRYQNVMEDAGFDTETHVVRGTPHRRINGIAEAEKADVTIIGSRGQSPLNNRVIGSTARNLARTTVVPLLVNRIERSTDEPDVLREHLFQRVLYATDFSENATRAFDAFQYLRHATQEATLVHVESPKDATSEADPAEQLASLADTLSQWDIETNVEVRRGDPAEEILDVEAAVTPTTTLVGSRGQSRMRRLLLGSVSEDIIAQATGNVYLVPPPRTA | not soluble
18 | MRALILGGTGEGRDVAAILHVAGWRVTSSLAGRVSNPKLPVGEVRIGGFGGPAGLTQWLLREGVEVIIDATHPFAERISASAAEASRATGIPLIALHRPEWKPRPRDRWIPVTSMQEAADKAARDYHHIFLTIGRQQLAPFAHDAHNLYVVRAVEPPQVALPQRHRLILSRGPFTLESEKKLMIDNQIDCVVTKNSGGPLTHAKLDAARDLGIDVVMVQRPQLPKVTHVATSAAEVAEIIDSL | not soluble
19 | MRALSSLLLTLLLAGPAFAEPSAELQEPLAGWRYSGLLDRTEQDRVAYPTPPIDRGIQRNRTLIEGQLKAIGHLRQPHSLSVNGNPLNLYTDEQGRFARPYAFGAGSNSVEVRSSEGKPLKRVQFYEANLNKTPPRIRVVLGWDDPKAELDMHIITPDGQHAFFGHPGLTNGGGLDPDGVDGPGPEMFTMTAPLRGTYLIYVNYWGNFGSGGYNFDEGSNQNEVITSQINLILNENTVDEKRETFIVPMRAIGDLLLVKSFNYLEHHHHHH | soluble
20 | MRALVVGAGIGGLVAARALRRAGLEVLVLEAHTYPGGLAGTFTHRGYRFDAGATLLSGFAPGGPMALVAEALGVCLPVEPFPEGFPLMEVHLPRGPLLRPVGREAEREAQRDFFGPRVLPFWRWQEERAKALLRLAPRLPWPPEREELLRLLALLPELFPLLPDLFLKAAHRAPQDPHFLRFLDAQLLIASQAEAKRTYALYAALALDLPHMGPALVPGGVGRVAEALAEGLPVRYKARAERLLLGEGRALAVEVAYGGRRRGEREVVEADLFVLDVPLAPLLGLPLKVPEDAWGAFVVHGVLPFRAPPPYFRQNAREKPFAFLSLRPEGEKTAFALSLHTPLALWEGLSPEEYGRLKARWGEMALSLGEALLPGLREAELLLFGTPRTYARFAGRAWVGGFPQTHPFRFPRVRPFPNVFRVGEGVFPGQSVPAAALSGLRAARLALEALGLAGSGGEARPSFPPFPLEHHHHHH | not soluble
21 | MRARIYQPARNAMTSGMAKTRKWVLEYAPGSAREVDPLMGWTSSSDTQSQVRLRFDSKEEALDYARAHGIDAVVTEPHKRKPNLRARGYGENFATDRRGPWTH | soluble
22 | MRDEISSRIRRLPAGMSGGRAPDFALAVYGGAFDPPHPGHESVIRRALLCAERVALVPSHRHAFGKRMGDFELRCRWLARLARRIDPRRVYCEPIEAGLMPDRPAVYSIDLLEALAARSGLASARIALLIGADNEAELPRFERAAELCWRFGRLVAEERLPLHSSMIRQRLREGLAVPEAWCLPEVKDELHCYGGERQAV | not soluble
23 | MRDIQQVLERWGAWVANNHEDVTWSSIAAGFKGLIPSKVKSRPQCCDDDAMVICGCMARLNRNNNDLHDLLVDYYVFGMTFMTLARKHGCSDGYIGKKLQKAEGVVEGMLMMLGVRLEMDKYIEHP | not soluble
24 | MRDLLNDLSEGLSHPDPILRAQIQMQKPLPKRFYKDVTVADVEEGGFTILLDGKPLRTPAKKPLVAPSRALADLLRDEWDAQKEVVNPVVMPVSRHVNTAIDGIASDTQAVFEDILRFSSSDLLCYRAGDPEALVARQTDYWDPVLDWATNVLGARFILVEGVMHRDQPREAIAAFAVTLKKYDTPIALAALHTMTSLTGSAILALALAEGELTLEEAWALAHLDEDWTAEQWGEDEEALERRAVRLIDMRAALNVLESLKSAS | soluble
25 | MRDMIYGEMALVSHTHPAAVGSTTCYEKNQQKQQQVQQIPTQPQVAHVSSNAILAAAQPFYPPPVQDSQPDRPIGYGAFGVVWSVTDPRSGKRVALKKMPNVFQNLASCKRVFREIKMLSSFRHDNVLSLLDILQPANPSFFQELYVLTELMQSDLHKIIVSPQALTPDHVKVFVYQILRGLKYLHTANILHRDIKPGNLLVNSNCILKICDFGLARTWDQRDRLNMTHEVVTQYYRAPELLMGARRYTGAVDIWSVGCIFAELLQRKILFQAAGPIEQLQMIIDLLGTPSQEAMKYACEGAKNHVLRAGLRAPDTQRLYKIASPDDKNHEAVDLLQKLLHFDPDKRISVEEALQHRYLEEGRLRFHSCMCSCCYTKPNMPSRLFAQDLDPRHESPFDPKWEKDMSRLSMFELREKMYQFVMDRPALYGVALCINPQSAAYKNFASSSVAQASELPPSPQAW | not soluble
26 | MRDNASLAHTQWNCKYHIVFVPKYRRQVIYGKIKKDIGQILRKLCEMKGVEIIEASLCPDHIHMLVSIPPKISVSSFMGYLKGKSSLMIFDRHANLKYKYGNRHFWCRGYYVDTVGRNRKAIEQYIRRQLQEDIASDQISLNEYIDPFTGERVNKSKK | soluble
